Assay results taken from patent US20150197757, “OXYGEN-RESPONSIVE BACTERIAL GENE SWITCH” (Wisconsin Alumni Research Foundation, published 2015).

Legend:
ArcA (chromosomal) [1] = biological target: T1, ArcA (chromosomal) (Escherichia coli, UniProt P0A9Q1 P0A9Q1:1-238); assay: cell_activity; anaerobic lacZ fusion; repression largely relieved with O2
T1 sequence: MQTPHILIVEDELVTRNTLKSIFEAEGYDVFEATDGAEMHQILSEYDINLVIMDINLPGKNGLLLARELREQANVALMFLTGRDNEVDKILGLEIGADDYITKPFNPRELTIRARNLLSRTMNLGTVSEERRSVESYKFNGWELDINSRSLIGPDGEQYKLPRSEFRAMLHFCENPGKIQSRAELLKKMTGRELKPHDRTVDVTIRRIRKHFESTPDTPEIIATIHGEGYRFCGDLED
Description: (§1) Strains containing P1icdA-lacZ were grown in minimal media with 0.2% glucose. Fold repression was calculated by dividing the β-galactosidase activity of a ΔarcA strain (e.g., 803 Miller units for wt P1icdA-lacZ without O₂) by the activity of an arcA⁺ strain (e.g., 57 Miller units for wt P1icdA without O₂). The 10-bp DRs are indicated by open boxes with an X representing a DR element for which the repressive activity has been eliminated by mutation, and asterisks denoting DRs that have been mutated towards consensus (see FIG. 1C). (A) Effects of mutations away from consensus within each DR element, assayed under anaerobic conditions (—O₂). (B) The effect of mutations towards consensus within each DR element, assayed under anaerobic conditions. The dotted line represents anaerobic ArcA-dependent repression of wt P1icdA. (C) The effect of mutations towards consensus within each DR element, assayed under aerobic conditions. […]
(§2) β-galactosidase assays—All strains were grown in MOPS minimal medium (Neidhardt et al., 1974) with 0.2% glucose at 37° C. and sparged with a gas mix of 95% N₂ and 5% CO₂ (anaerobic) or 70% N₂, 5% CO₂, and 25% O₂ (aerobic). […] Standard errors for data plotted as ‘fold repression’ were calculated using a propagation of standard error formula (Ku, J. Res. National Bureau of Standards 70C:263-273 (1966)).

ArcA (chromosomal) [2] = biological target: T1, ArcA (chromosomal); assay: cell_activity; anaerobic
Description: as §1, §2

ArcA (chromosomal) [3] = biological target: T1, ArcA (chromosomal); assay: cell_activity; anaerobic; remark: listed apart in the source
Description: P1icdA expression in the construct with a fourth DR element was about 18% higher in a ΔarcA background compared to the other strains tested (data not shown).
How ArcA binding to each DR element contributes to icdA repression was determined by measuring β-galactosidase activity produced from P1icdA-lacZ transcriptional fusions containing the GT-to-CA (5′-TGTTA-3′ to 5′-TCATA-3′) (SEQ ID NO:2; SEQ ID NO:4, respectively) mutations within each DR element under anaerobic conditions. […] P1izcdA was repressed 14-fold by ArcA (FIG. 3A). […]
β-galactosidase assays—All strains were grown in MOPS minimal medium (Neidhardt et al., 1974) with 0.2% glucose at 37° C. and sparged with a gas mix of 95% N₂ and 5% CO₂ (anaerobic) or 70% N₂, 5% CO₂, and 25% O₂ (aerobic). […] To terminate cell growth and any further protein synthesis, chloramphenicol (final concentration, 20 μg/ml) or tetracycline (final concentration, 10 μg/ml) was added, and cells were placed on ice until assayed for β-galactosidase activity (Miller J H (1972) Experiments in molecular genetics. [Cold Spring Harbor, N.Y.]: Cold Spring Harbor Laboratory). β-Galactosidase assays were repeated at least three times and fold repression was calculated by dividing the β-galactosidase activity of a ΔarcA strain by the activity of an arcA⁺ strain. […]

ArcA (chromosomal) [4] = biological target: T1, ArcA (chromosomal); assay: cell_activity; aerobic; anaerobic repression similar to consensus DR3 alone
Description: as §1, §2

ArcA (chromosomal) [5] = biological target: T1, ArcA (chromosomal); assay: cell_activity; anaerobic; aerobic repression nearly the same, no longer O2 sensitive
Description: as §1, §2

ArcA (chromosomal) [6] = biological target: T1, ArcA (chromosomal); assay: cell_activity; anaerobic; aerobic about 2.5-fold repression
Description: as §1, §2

ArcA D54E = biological target: T2, ArcA D54E (Escherichia coli, UniProt P0A9Q1 P0A9Q1:1-238, D54E); assay: cell_activity; anaerobic; aerobic repression above wt ArcA
T2 sequence: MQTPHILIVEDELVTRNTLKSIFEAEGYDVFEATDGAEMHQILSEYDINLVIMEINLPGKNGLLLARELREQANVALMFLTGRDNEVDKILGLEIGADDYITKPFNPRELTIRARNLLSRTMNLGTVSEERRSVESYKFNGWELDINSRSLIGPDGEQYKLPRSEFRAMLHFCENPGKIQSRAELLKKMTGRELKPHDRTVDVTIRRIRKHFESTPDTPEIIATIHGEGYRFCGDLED
Description: To test whether the enhanced repression of P₁idcdA with mutant ArcA binding sites is still dependent on phosphorylation, the aspartate residue at position 54 (site of phosphorylation) in the chromosomal copy of arcA was mutated to yield either alanine or glutamate, preventing phosphorylation from ArcB. The D54A variant reduced the repression of all P1icdA-lacZ constructs compared to that with the wt protein under both aerobic and anaerobic growth conditions (FIG. 5A). […] Thus, the elevated aerobic repression with the strengthened ArcA binding sites appears to result from increased occupancy of the small amount of ArcA-P likely present during aerobic conditions.
as §2, with “(aerobic). Cells were harvested during mid-log growth (OD₆₀₀ of ˜0.3 on a Perkin Elmer Lambda 25 UV/Vis Spectrophotometer).” for “(aerobic).”

ArcA (chromosomal) [7] = biological target: T1, ArcA (chromosomal); assay: cell_activity; anaerobic; aerobic 7-fold repression
Description: as §1, §2

[8] = biological target: T3, ArcA-P (phosphorylated ArcA) (Escherichia coli, UniProt P0A9Q1 P0A9Q1:1-238); assay: footprint; all four DRs protected; apparent affinity higher than wt; narrow range (<4-fold) of ArcA-P; conditions: tags: His6 removed with TEV protease; phosphorylated with carbamyl phosphate; chain copies: 2 per two DR elements (inferred); label: 3' 32P (footprint)
T3 sequence: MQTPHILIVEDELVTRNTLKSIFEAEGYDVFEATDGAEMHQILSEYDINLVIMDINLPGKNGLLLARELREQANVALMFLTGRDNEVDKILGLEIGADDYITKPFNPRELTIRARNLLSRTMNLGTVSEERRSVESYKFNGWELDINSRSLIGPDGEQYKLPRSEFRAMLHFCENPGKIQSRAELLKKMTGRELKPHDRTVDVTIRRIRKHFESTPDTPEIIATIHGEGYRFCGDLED
Description: To determine whether adding a fourth DR element facilitates ArcA-P binding and increases the footprint length, a consensus DR element (5′-TGTTA-3′) (SEQ ID NO:2) was added at the same spacing (11 by center-to-center) to either the 3′ or the 5′ end of the three-DR ArcA binding site within the icdA promoter region and DNase I footprinting experiments were performed.
DNase I footprinting: icdA promoter fragments were isolated from pPK9476, pPK9477, pPK9908, pPK9909, pPK9913, pPK9914, and pPK15001 after digestion with XhoI and BamHI. Sequenase Version 2.0 (USB Scientific) was used to 3′ radiolabel the BamHI end of the fragment with [α-³²P]-dGTP (PerkinElmer). Labeled DNA fragments were isolated from a non-denaturing 5% acrylamide gel and were subsequently purified with Elutip-d™ columns (Schleicher and Schuell). ArcA was phosphorylated by incubating with 50 mM disodium carbamyl phosphate (Sigma Aldrich) in 50 mM Tris, pH 7.9, 150 mM NaCl, and 10 mM MgCl₂ for 1 hour at 30° C. (Lynch & Lin, J. Bacteria 178:6238-6249 (1996)) and immediately used in the binding assays. Footprinting assays were performed by incubating phosphorylated ArcA with labeled DNA (˜5 nM) for 10 minutes at 30° C. in 40 mM Tris (pH 7.9), 30 mM KCl, 100 μg/ml BSA and 1 mM DTT followed by the addition of 2 μg/ml DNase I (Worthington) for 30 seconds.

B1: icdA P1 wt (dsDNA)
DNA 1: AGAGCAATTTTTTGTTAATGATTTGTAATTGGCTTGTCAATACTACCCTATTGT
DNA 2: ACAATAGGGTAGTATTGACAAGCCAATTACAAATCATTAACAAAAAATTGCTCT
activity (ArcA (chromosomal) [1]): 14 fold repression

B2: icdA P1 DR2 A->T, DR3 GT->CA (dsDNA)
DNA 1: AGAGCAATTTTTTGTTAATGATTTGTTATTGGCTTCACAATACTACCCTATTGT
DNA 2: ACAATAGGGTAGTATTGTGAAGCCAATAACAAATCATTAACAAAAAATTGCTCT
activity (ArcA (chromosomal) [2]): 3 fold reduction in repression vs DR2 A->T

B3: icdA P1 DR3 GT->CA (dsDNA)
DNA 1: AGAGCAATTTTTTGTTAATGATTTGTAATTGGCTTCACAATACTACCCTATTGT
DNA 2: ACAATAGGGTAGTATTGTGAAGCCAATTACAAATCATTAACAAAAAATTGCTCT
activity (ArcA (chromosomal) [3]): ~3.5 fold loss in repression vs wt

B4: icdA P1 DR2 A->T, DR3 C->T (dsDNA)
DNA 1: AGAGCAATTTTTTGTTAATGATTTGTTATTGGCTTGTTAATACTACCCTATTGT
DNA 2: ACAATAGGGTAGTATTAACAAGCCAATAACAAATCATTAACAAAAAATTGCTCT
activity (ArcA (chromosomal) [4]): 21 fold repression

B5: icdA P1 5' DR4 (dsDNA)
DNA 1: ATGTTAATTTTTTGTTAATGATTTGTAATTGGCTTGTCAATACTACCCTATTGT
DNA 2: ACAATAGGGTAGTATTGACAAGCCAATTACAAATCATTAACAAAAAATTAACAT
activity (ArcA (chromosomal) [5]): 8 fold increase in repression vs wt

B6: icdA P1 DR2 A->T (dsDNA)
DNA 1: AGAGCAATTTTTTGTTAATGATTTGTTATTGGCTTGTCAATACTACCCTATTGT
DNA 2: ACAATAGGGTAGTATTGACAAGCCAATAACAAATCATTAACAAAAAATTGCTCT
activity (ArcA (chromosomal) [6]): 3 fold increase in repression vs wt

B7: icdA P1 DR3 C->T (dsDNA)
DNA 1: AGAGCAATTTTTTGTTAATGATTTGTAATTGGCTTGTTAATACTACCCTATTGT
DNA 2: ACAATAGGGTAGTATTAACAAGCCAATTACAAATCATTAACAAAAAATTGCTCT
activity (ArcA D54E): 2 fold reduction in repression vs wt ArcA
activity (ArcA (chromosomal) [7]): 6 fold increase in repression vs wt

B8: icdA P1 3' DR4 (dsDNA)
DNA 1: AGAGCAATTTTTTGTTAATGATTTGTAATTGGCTTGTCAATACTATGTTATTGT
DNA 2: ACAATAACATAGTATTGACAAGCCAATTACAAATCATTAACAAAAAATTGCTCT
binding result [8]: binds
